The record followed here is patent US20220242962A1 (APTEVO RESEARCH AND DEVELOPMENT, published 2022).

In one test the target is T1, Full-length Cyno 4-1BB (cynomolgus monkey, UniProt Q07011 24-255 (human entry)).
T1 construct: on Jurkat or CHO cells; also called FOB006; cynomolgus 4-1BB
T1 chain: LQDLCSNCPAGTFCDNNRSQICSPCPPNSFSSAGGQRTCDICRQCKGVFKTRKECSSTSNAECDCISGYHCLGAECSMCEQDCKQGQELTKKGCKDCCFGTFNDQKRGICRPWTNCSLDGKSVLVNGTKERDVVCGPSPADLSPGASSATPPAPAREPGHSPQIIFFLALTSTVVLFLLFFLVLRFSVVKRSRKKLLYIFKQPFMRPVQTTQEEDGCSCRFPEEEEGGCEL
Nature of the test: binding to cells expressing full length cyno 41BB.

The target of the next test is T2, Full-length Human 4-1BB (human, UniProt Q07011 24-255).
T2 construct: also called FOB005; CD137
Put plainly: binding to cells expressing full length human 41BB.

B1: Clone 6 anti-41BB murine monoclonal antibody (antibody, V domains shown)
VH: QVQLQQPGAELVKPGASVKLSCKASGYTFTSYWINWVKQRPGQGLEWIGNIYPGSSTTNYNEKFKSKATLTVDTSSSTAYMQLSSLTSDDSAVFYCASFSDGYYAYAMDYWVQGTSVTVSS
VL: DIQMTQTTSSLSASLGDRVTITCRASQDISNYLNWYQQKPDGTVKLLIYYTSRLHSGVPSRFSGGGSGTDYSLTISNLEQEDIATYFCQQGYTLPYTFGGGTKLEIK
notes: hybridoma-derived mouse antibody; also called mAb Clone 6; mouse clone 6
As for B1, the binding result in the test with Full-length Cyno 4-1BB and with Full-length Human 4-1BB was “binds” throughout.
